According to article PMC2656774 (Cell, 2009):

Biological target: human eIF4A1, full-length (human, UniProt P60842 1-406)
Test: SPR

human eIF4A1, full-length, sequence (P60842 whole entry): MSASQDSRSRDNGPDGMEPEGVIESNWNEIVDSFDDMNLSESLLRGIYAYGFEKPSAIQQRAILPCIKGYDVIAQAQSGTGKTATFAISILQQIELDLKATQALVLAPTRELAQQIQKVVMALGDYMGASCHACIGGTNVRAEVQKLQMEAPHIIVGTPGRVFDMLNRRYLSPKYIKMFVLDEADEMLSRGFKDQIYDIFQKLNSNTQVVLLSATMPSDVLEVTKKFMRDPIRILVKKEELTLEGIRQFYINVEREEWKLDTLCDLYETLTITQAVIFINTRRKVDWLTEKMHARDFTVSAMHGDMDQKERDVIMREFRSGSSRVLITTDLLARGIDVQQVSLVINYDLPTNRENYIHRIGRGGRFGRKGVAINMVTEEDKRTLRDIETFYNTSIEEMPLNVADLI

B1: human eIF4H isoform 2 (natural protein)
chain: not shown
  binding result: binds
